Data on 7 molecules can be found in article PMC9452701, “Highly efficient production of rebaudioside D enabled by structure-guided engineering of bacterial glycosyltransferase YojK” (Frontiers in Bioengineering and Biotechnology, 2022).

B1: YojK (Bacillus subtilis subsp. subtilis str. 168) (protein)
chain: MANVLMIGFPGEGHINPSIGVMKELKSRGENITYYAVKEYKEKITALDIEFREYHDFRGDYFGKNATGDEERDFTEMLCAFLKACKDIATHIYEEVKHESYDYVIYDHHLLAGKVIANMLKLPRFSLCTTFAMNEEFAKEMMGAYMKGSLEDSPHYESYQQLAETLNADFQAEIKKPFDVFLADGDLTIVFTSRGFQPLAEQFGERYVFVGPSITERAGNNDFPFDQIDNENVLFISMGTIFNNQKQFFNQCLEVCKDFDGKVVLSIGKHIKTSELNDIPENFIVRPYVPQLEILKRASLFVTHGGMNSTSEGLYFETPLVVIPMGGDQFVVADQVEKVGAGKVIKKEELSESLLKETIQEVMNNRSYAEKAKEIGQSLKAAGGSKKAADSILEAVKQKTQSANA
B2: YojK (Bacillus subtilis subsp. subtilis str. 168; G327N) (protein)
chain: B1 chain with G327N
B3: YojK (Bacillus subtilis subsp. subtilis str. 168; G326F) (protein)
chain: B1 chain with G326F
B4: YojK (Bacillus subtilis subsp. subtilis str. 168; I241T) (protein)
chain: B1 chain with I241T
B5: YojK (Bacillus subtilis subsp. subtilis str. 168; G326F/I241T) (protein)
chain: B1 chain with I241T, G326F
B6: YojK (Bacillus subtilis subsp. subtilis str. 168; G327N/I241T) (protein)
chain: B1 chain with I241T, G327N

Positions count from the first letter of the chain named. Numbers in names are those of the source.

Substrate in one series: C=C1C[C@@]23CC[C@H]4[C@@](C)(CCC[C@@]4(C)C(=O)O[C@@H]4O[C@H](CO)[C@@H](O)[C@H](O)[C@H]4O)[C@@H]2CC[C@]1(O[C@@H]1O[C@H](CO)[C@@H](O)[C@H](O[C@@H]2O[C@H](CO)[C@@H](O)[C@H](O)[C@H]2O)[C@H]1O[C@@H]1O[C@H](CO)[C@@H](O)[C@H](O)[C@H]1O)C3
The series is described as follows: purified protein. Particulars: 5 mM UDPG, 10 mM MnCl2, 50 mM Tris-HCl pH 8.0, 35°C, 20 min, Reb A 0.05-0.7 mM.
Regarding B1, the Km was determined as 210.52 ± 11.70 µM, the catalytic constant (kcat) came out at 0.018 s⁻¹ and the kcat/Km amounted to 85.5 M⁻¹ s⁻¹.

Turning to B2, the Km was 176.23 ± 10.62 µM, the kcat turned out to be 0.0837 s⁻¹ and the kcat/Km was found to be 475 M⁻¹ s⁻¹.

For B3, the Km stood at 290.16 ± 8.34 µM, the kcat amounted to 0.154 s⁻¹ and the kcat/Km amounted to 528 M⁻¹ s⁻¹.

Take B4: the Km was found to be 197.74 ± 9.25 µM, the kcat worked out at 0.0223 s⁻¹ and the kcat/Km turned out to be 113 M⁻¹ s⁻¹.

On to B5, for which the Km came out at 347.63 ± 24.23 µM, the kcat is 0.258 s⁻¹ and the kcat/Km was 741 M⁻¹ s⁻¹.

For the molecule B6, the Km amounted to 193.07 ± 7.30 µM, the catalytic constant (kcat) stood at 0.179 s⁻¹ and the kcat/Km was 929 M⁻¹ s⁻¹.

The next series has as its target T1, YojK (Bacillus subtilis, UniProt O31853).
T1 construct: codon-optimized synthetic gene in pET-21b(+), E. coli BL21(DE3), Ni-NTA and Superdex 200; M1-M405 described; two monomers per asymmetric unit
T1 sequence (O31853 1-405): B1 chain
The series is described as follows: X-ray crystal structure, […] Å. The class given is binding. The following applies: co-crystallised with 5 mM UDP, pH 8.0, 18°C; sugar donor site.
For `O=c1ccn([C@@H]2O[C@H](COP(=O)(O)OP(=O)(O)O)[C@@H](O)[C@H]2O)c(=O)[nH]1` [UDP], the “X-ray crystal structure, 1.90 Å” value is given as “we solved the crystal structure of YojK in complex with uridine diphosphate (UDP)”.

In general, Km refers to the substrate concentration at which the rate is half of its maximum. What is called kcat is the number of substrate molecules converted per active site and unit of time at saturation. Usually kcat/Km stands for the turnover number divided by the Michaelis constant.
